Starred links: 1 amine or outer side, 2 acyl side, 3 side chain; linkers in the order of their positions; H or OH if unused. Non-standard residues stand in square brackets, D forms with d. Groups on a side chain read outwards from the residue. No end group written: not given here. *: point of attachment. C18 diacid = O=C(O)CCCCCCCCCCCCCCCCC(=O)*; γGlu = O=C(O)[C@H](CCC(=O)[*:2])N[*:1]; AEEA = NCCOCCOCC(=O)O; Aib = CC(C)(N)C(=O)O
T1: CRF1R receptor (anti-target) (UniProt P34998 24-415, limits assumed)
T1 sequence (looked up): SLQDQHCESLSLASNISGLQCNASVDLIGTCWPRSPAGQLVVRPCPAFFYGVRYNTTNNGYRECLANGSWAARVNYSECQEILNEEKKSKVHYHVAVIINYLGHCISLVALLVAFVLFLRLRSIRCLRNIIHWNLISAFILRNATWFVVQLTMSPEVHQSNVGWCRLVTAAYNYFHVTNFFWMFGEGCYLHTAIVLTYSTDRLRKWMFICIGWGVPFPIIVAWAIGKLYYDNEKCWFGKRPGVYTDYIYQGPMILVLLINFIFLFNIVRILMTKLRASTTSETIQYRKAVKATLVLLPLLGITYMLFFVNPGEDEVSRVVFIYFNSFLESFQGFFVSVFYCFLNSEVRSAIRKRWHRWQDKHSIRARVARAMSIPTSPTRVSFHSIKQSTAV

B1: peptide of SEQ ID NO: 126 (peptide)
peptide: IVLSLD[dV]PIKLK([AEEA-AEEA-γGlu-C18 diacid])QILLEQAKQK[Aib]QRAQAEKNKRILERV-NH2
modifications: N-terminus assumed
SMILES: CC[C@H](C)[C@H](N)C(=O)N[C@H](C(=O)N[C@@H](CC(C)C)C(=O)N[C@@H](CO)C(=O)N[C@@H](CC(C)C)C(=O)N[C@@H](CC(=O)O)C(=O)N[C@@H](C(=O)N1CCC[C@H]1C(=O)N[C@H](C(=O)N[C@@H](CCCCN)C(=O)N[C@@H](CC(C)C)C(=O)N[C@@H](CCCCNC(=O)COCCOCCNC(=O)COCCOCCNC(=O)CC[C@H](NC(=O)CCCCCCCCCCCCCCCCC(=O)O)C(=O)O)C(=O)N[C@@H](CCC(N)=O)C(=O)N[C@H](C(=O)N[C@@H](CC(C)C)C(=O)N[C@@H](CC(C)C)C(=O)N[C@@H](CCC(=O)O)C(=O)N[C@@H](CCC(N)=O)C(=O)N[C@@H](C)C(=O)N[C@@H](CCCCN)C(=O)N[C@@H](CCC(N)=O)C(=O)N[C@@H](CCCCN)C(=O)NC(C)(C)C(=O)N[C@@H](CCC(N)=O)C(=O)N[C@@H](CCCNC(=N)N)C(=O)N[C@@H](C)C(=O)N[C@@H](CCC(N)=O)C(=O)N[C@@H](C)C(=O)N[C@@H](CCC(=O)O)C(=O)N[C@@H](CCCCN)C(=O)N[C@@H](CC(N)=O)C(=O)N[C@@H](CCCCN)C(=O)N[C@@H](CCCNC(=N)N)C(=O)N[C@H](C(=O)N[C@@H](CC(C)C)C(=O)N[C@@H](CCC(=O)O)C(=O)N[C@@H](CCCNC(=N)N)C(=O)N[C@H](C(N)=O)C(C)C)[C@@H](C)CC)[C@@H](C)CC)[C@@H](C)CC)C(C)C)C(C)C
B2: peptide of SEQ ID NO: 125 (peptide)
peptide: IVLSLDVPIKLK([AEEA-AEEA-γGlu-C18 diacid])QILLEQARQK[Aib]QREQAEKNKRILERV-NH2
modifications: N-terminus assumed
SMILES: CC[C@H](C)[C@H](N)C(=O)N[C@H](C(=O)N[C@@H](CC(C)C)C(=O)N[C@@H](CO)C(=O)N[C@@H](CC(C)C)C(=O)N[C@@H](CC(=O)O)C(=O)N[C@H](C(=O)N1CCC[C@H]1C(=O)N[C@H](C(=O)N[C@@H](CCCCN)C(=O)N[C@@H](CC(C)C)C(=O)N[C@@H](CCCCNC(=O)COCCOCCNC(=O)COCCOCCNC(=O)CC[C@H](NC(=O)CCCCCCCCCCCCCCCCC(=O)O)C(=O)O)C(=O)N[C@@H](CCC(N)=O)C(=O)N[C@H](C(=O)N[C@@H](CC(C)C)C(=O)N[C@@H](CC(C)C)C(=O)N[C@@H](CCC(=O)O)C(=O)N[C@@H](CCC(N)=O)C(=O)N[C@@H](C)C(=O)N[C@@H](CCCNC(=N)N)C(=O)N[C@@H](CCC(N)=O)C(=O)N[C@@H](CCCCN)C(=O)NC(C)(C)C(=O)N[C@@H](CCC(N)=O)C(=O)N[C@@H](CCCNC(=N)N)C(=O)N[C@@H](CCC(=O)O)C(=O)N[C@@H](CCC(N)=O)C(=O)N[C@@H](C)C(=O)N[C@@H](CCC(=O)O)C(=O)N[C@@H](CCCCN)C(=O)N[C@@H](CC(N)=O)C(=O)N[C@@H](CCCCN)C(=O)N[C@@H](CCCNC(=N)N)C(=O)N[C@H](C(=O)N[C@@H](CC(C)C)C(=O)N[C@@H](CCC(=O)O)C(=O)N[C@@H](CCCNC(=N)N)C(=O)N[C@H](C(N)=O)C(C)C)[C@@H](C)CC)[C@@H](C)CC)[C@@H](C)CC)C(C)C)C(C)C
B3: peptide of SEQ ID NO: 123 (peptide)
peptide: IVLSLDVPIKLK([AEEA-AEEA-γGlu-C18 diacid])QILLEQARQK[Aib]QRAQAEKNKRILERV-NH2
modifications: N-terminus assumed
SMILES: CC[C@H](C)[C@H](N)C(=O)N[C@H](C(=O)N[C@@H](CC(C)C)C(=O)N[C@@H](CO)C(=O)N[C@@H](CC(C)C)C(=O)N[C@@H](CC(=O)O)C(=O)N[C@H](C(=O)N1CCC[C@H]1C(=O)N[C@H](C(=O)N[C@@H](CCCCN)C(=O)N[C@@H](CC(C)C)C(=O)N[C@@H](CCCCNC(=O)COCCOCCNC(=O)COCCOCCNC(=O)CC[C@H](NC(=O)CCCCCCCCCCCCCCCCC(=O)O)C(=O)O)C(=O)N[C@@H](CCC(N)=O)C(=O)N[C@H](C(=O)N[C@@H](CC(C)C)C(=O)N[C@@H](CC(C)C)C(=O)N[C@@H](CCC(=O)O)C(=O)N[C@@H](CCC(N)=O)C(=O)N[C@@H](C)C(=O)N[C@@H](CCCNC(=N)N)C(=O)N[C@@H](CCC(N)=O)C(=O)N[C@@H](CCCCN)C(=O)NC(C)(C)C(=O)N[C@@H](CCC(N)=O)C(=O)N[C@@H](CCCNC(=N)N)C(=O)N[C@@H](C)C(=O)N[C@@H](CCC(N)=O)C(=O)N[C@@H](C)C(=O)N[C@@H](CCC(=O)O)C(=O)N[C@@H](CCCCN)C(=O)N[C@@H](CC(N)=O)C(=O)N[C@@H](CCCCN)C(=O)N[C@@H](CCCNC(=N)N)C(=O)N[C@H](C(=O)N[C@@H](CC(C)C)C(=O)N[C@@H](CCC(=O)O)C(=O)N[C@@H](CCCNC(=N)N)C(=O)N[C@H](C(N)=O)C(C)C)[C@@H](C)CC)[C@@H](C)CC)[C@@H](C)CC)C(C)C)C(C)C
B4: peptide of SEQ ID NO: 122 (peptide)
peptide: IVLSLDVPIKLK([AEEA-AEEA-γGlu-C18 diacid])QILLKQERQKKQRQQAEKNKQILAQV-NH2
modifications: N-terminus assumed
SMILES: CC[C@H](C)[C@H](N)C(=O)N[C@H](C(=O)N[C@@H](CC(C)C)C(=O)N[C@@H](CO)C(=O)N[C@@H](CC(C)C)C(=O)N[C@@H](CC(=O)O)C(=O)N[C@H](C(=O)N1CCC[C@H]1C(=O)N[C@H](C(=O)N[C@@H](CCCCN)C(=O)N[C@@H](CC(C)C)C(=O)N[C@@H](CCCCNC(=O)COCCOCCNC(=O)COCCOCCNC(=O)CC[C@H](NC(=O)CCCCCCCCCCCCCCCCC(=O)O)C(=O)O)C(=O)N[C@@H](CCC(N)=O)C(=O)N[C@H](C(=O)N[C@@H](CC(C)C)C(=O)N[C@@H](CC(C)C)C(=O)N[C@@H](CCCCN)C(=O)N[C@@H](CCC(N)=O)C(=O)N[C@@H](CCC(=O)O)C(=O)N[C@@H](CCCNC(=N)N)C(=O)N[C@@H](CCC(N)=O)C(=O)N[C@@H](CCCCN)C(=O)N[C@@H](CCCCN)C(=O)N[C@@H](CCC(N)=O)C(=O)N[C@@H](CCCNC(=N)N)C(=O)N[C@@H](CCC(N)=O)C(=O)N[C@@H](CCC(N)=O)C(=O)N[C@@H](C)C(=O)N[C@@H](CCC(=O)O)C(=O)N[C@@H](CCCCN)C(=O)N[C@@H](CC(N)=O)C(=O)N[C@@H](CCCCN)C(=O)N[C@@H](CCC(N)=O)C(=O)N[C@H](C(=O)N[C@@H](CC(C)C)C(=O)N[C@@H](C)C(=O)N[C@@H](CCC(N)=O)C(=O)N[C@H](C(N)=O)C(C)C)[C@@H](C)CC)[C@@H](C)CC)[C@@H](C)CC)C(C)C)C(C)C
B5: peptide of SEQ ID NO: 121 (peptide)
peptide: IVLSLDVPIKLK([AEEA-AEEA-γGlu-C18 diacid])QILLKQERQKKQREKAEKNKQILAQV-NH2
modifications: N-terminus assumed
SMILES: CC[C@H](C)[C@H](N)C(=O)N[C@H](C(=O)N[C@@H](CC(C)C)C(=O)N[C@@H](CO)C(=O)N[C@@H](CC(C)C)C(=O)N[C@@H](CC(=O)O)C(=O)N[C@H](C(=O)N1CCC[C@H]1C(=O)N[C@H](C(=O)N[C@@H](CCCCN)C(=O)N[C@@H](CC(C)C)C(=O)N[C@@H](CCCCNC(=O)COCCOCCNC(=O)COCCOCCNC(=O)CC[C@H](NC(=O)CCCCCCCCCCCCCCCCC(=O)O)C(=O)O)C(=O)N[C@@H](CCC(N)=O)C(=O)N[C@H](C(=O)N[C@@H](CC(C)C)C(=O)N[C@@H](CC(C)C)C(=O)N[C@@H](CCCCN)C(=O)N[C@@H](CCC(N)=O)C(=O)N[C@@H](CCC(=O)O)C(=O)N[C@@H](CCCNC(=N)N)C(=O)N[C@@H](CCC(N)=O)C(=O)N[C@@H](CCCCN)C(=O)N[C@@H](CCCCN)C(=O)N[C@@H](CCC(N)=O)C(=O)N[C@@H](CCCNC(=N)N)C(=O)N[C@@H](CCC(=O)O)C(=O)N[C@@H](CCCCN)C(=O)N[C@@H](C)C(=O)N[C@@H](CCC(=O)O)C(=O)N[C@@H](CCCCN)C(=O)N[C@@H](CC(N)=O)C(=O)N[C@@H](CCCCN)C(=O)N[C@@H](CCC(N)=O)C(=O)N[C@H](C(=O)N[C@@H](CC(C)C)C(=O)N[C@@H](C)C(=O)N[C@@H](CCC(N)=O)C(=O)N[C@H](C(N)=O)C(C)C)[C@@H](C)CC)[C@@H](C)CC)[C@@H](C)CC)C(C)C)C(C)C
B6: peptide of SEQ ID NO: 124 (peptide)
peptide: IVLSLDVPIKLK([AEEA-AEEA-γGlu-C18 diacid])QILLKQARQK[Aib]QRAQAEKNKRILERV-NH2
modifications: N-terminus assumed
SMILES: CC[C@H](C)[C@H](N)C(=O)N[C@H](C(=O)N[C@@H](CC(C)C)C(=O)N[C@@H](CO)C(=O)N[C@@H](CC(C)C)C(=O)N[C@@H](CC(=O)O)C(=O)N[C@H](C(=O)N1CCC[C@H]1C(=O)N[C@H](C(=O)N[C@@H](CCCCN)C(=O)N[C@@H](CC(C)C)C(=O)N[C@@H](CCCCNC(=O)COCCOCCNC(=O)COCCOCCNC(=O)CC[C@H](NC(=O)CCCCCCCCCCCCCCCCC(=O)O)C(=O)O)C(=O)N[C@@H](CCC(N)=O)C(=O)N[C@H](C(=O)N[C@@H](CC(C)C)C(=O)N[C@@H](CC(C)C)C(=O)N[C@@H](CCCCN)C(=O)N[C@@H](CCC(N)=O)C(=O)N[C@@H](C)C(=O)N[C@@H](CCCNC(=N)N)C(=O)N[C@@H](CCC(N)=O)C(=O)N[C@@H](CCCCN)C(=O)NC(C)(C)C(=O)N[C@@H](CCC(N)=O)C(=O)N[C@@H](CCCNC(=N)N)C(=O)N[C@@H](C)C(=O)N[C@@H](CCC(N)=O)C(=O)N[C@@H](C)C(=O)N[C@@H](CCC(=O)O)C(=O)N[C@@H](CCCCN)C(=O)N[C@@H](CC(N)=O)C(=O)N[C@@H](CCCCN)C(=O)N[C@@H](CCCNC(=N)N)C(=O)N[C@H](C(=O)N[C@@H](CC(C)C)C(=O)N[C@@H](CCC(=O)O)C(=O)N[C@@H](CCCNC(=N)N)C(=O)N[C@H](C(N)=O)C(C)C)[C@@H](C)CC)[C@@H](C)CC)[C@@H](C)CC)C(C)C)C(C)C

Molecular target: T1, CRF1R receptor (anti-target)
Assay: cell-based or functional assay

Binder | EC50 [nM] 0% HSA (cAMP, HTRF) [nM] | Emax (%) (100% = Sauvagine at 100 nM)
B1 | > 100 | 36.5
B2 | > 100 | 17.7
B3 | > 100 | 9
B4 | > 100 | 6.9
B5 | > 100 | -1.1
B6 | > 100 | -2.5
